Source: article PMC6598686 (Molecular cell, 2019)

Target: human linker histone H1.4 (human, UniProt P10412 1-219)
Assay: pull-down

Chain of human linker histone H1.4 (P10412 whole entry): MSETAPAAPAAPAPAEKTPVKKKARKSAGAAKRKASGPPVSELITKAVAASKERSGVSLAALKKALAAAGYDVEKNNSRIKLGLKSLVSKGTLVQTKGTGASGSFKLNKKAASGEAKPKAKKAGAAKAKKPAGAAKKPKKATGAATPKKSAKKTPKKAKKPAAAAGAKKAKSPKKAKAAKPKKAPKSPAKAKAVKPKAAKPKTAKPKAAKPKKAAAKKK

B1: His-tagged NAP1(160-312) (domain or fragment, human, UniProt P55209 160-312, looked up)
chain: EKEDPKGIPEFWLTVFKNVDLLSDMVQEHDEPILKHLKDIKVKFSDAGQPMSFVLEFHFEPNEYFTNEVLTKTYRMRSEPDDSDPFSFDGPEIMGCTGCQIDWKKGKNVTLKTIKKKQKHKGRGTVRTVTKTVSNDSFFNFFAPPEVPESGDL
binding result: binds
